Molecular target: CD46 (UniProt P15529)
Assay: cell-based or functional assay

Sequence of CD46 (P15529 35-392 limits assumed): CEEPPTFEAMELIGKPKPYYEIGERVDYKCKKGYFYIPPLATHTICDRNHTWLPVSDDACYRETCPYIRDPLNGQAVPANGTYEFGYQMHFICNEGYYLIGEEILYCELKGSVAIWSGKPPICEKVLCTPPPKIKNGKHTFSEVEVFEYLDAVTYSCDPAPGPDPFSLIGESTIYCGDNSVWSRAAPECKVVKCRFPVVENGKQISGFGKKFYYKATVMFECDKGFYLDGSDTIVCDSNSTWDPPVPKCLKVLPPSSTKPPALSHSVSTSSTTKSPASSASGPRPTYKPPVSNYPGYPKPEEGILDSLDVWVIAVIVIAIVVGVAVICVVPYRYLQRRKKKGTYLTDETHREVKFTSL

anti-CD46 antibody J4.48 (Chemicon International)
inhibition of human CMV (BADrUL131) infectivity of ARPE-19 epithelial cells (IE1 immunofluorescence): 77%

From patent US20140370026A1
